Results as given in US7018791B1, “Binding complexes” (Institute of Cancer Research: Royal Cancer Hospital, priority 1997, dated 2006).

Biological target: T1, CCT
T1 construct: Take 20S mouse testis sucrose gradient fractions enriched in CCT; from tissue; host or cells: mouse testis, 20S sucrose gradient fractions
Test: CCT binding to immobilised actin peptide array (Pepset pins, MAb 91a ELISA, absorbance 410 nm)
Settings: FIG. 9; mouse testis CCT
Excerpt: Peptides of 15 amino acids in length were synthesised on polyethylene pins mounted on blocks according to the method of Maeji et al (Maeji N. J. et al, 1994) and commercially available under the trade name of Pepsets™ from Chiron Mimotopes. The sequence of the peptides were such that they defined the full length of the actin sequence with a 5 amino acid overlap between the sequential peptides, and selected peptides representing key known structures in actin (Table 2 annotated). The peptides are synthesised on polyethylene pins which are presented to be compatible with standard 96 well microtitre plates. The pins become the solid phase on which interactions with CCT complexes can be probed. The method is described below. • 1. Take Pepset pins from storage at −20(° C.) and equilibrate at room temperature. • 2. Wash pins with PBS for 10 minutes at room temperature on a shaking table. • 3. Incubate pins with blocking buffer (2% w/v BSA 0.1% Tween 20 in PBS) for 60 minutes at room temperature on a shaker. • 4. Wash pins with PBS for 10 minutes at room temperature on a shaker (times 1) • 5. […] Remove pins from the microtitre plate and read the microtitre plate at 410 nm on a Dynatech ELISA plate reader. • 16. Results are expressed as a 410 nm absorbance reading for each well corresponding to each unique substrate peptide from the actin molecule. […]

## GGTTMYPGIADRMQK [substrate peptide 61]
  CCT binding to immobilised substrate peptide (410 nm absorbance reading): new protein interaction site
